B1: Rubisco large subunit (in the native holoenzyme) (natural protein, UniProt P00877 3-475, looked up)
chain: PQTETKAGAGFKAGVKDYRLTYYTPDYVVRDTDILAAFRMTPQLGVPPEECGAAVAAESSTGTWTTVWTDGLTSLDRYKGRCYDIEPVPGEDNQYIAYVAYPIDLFEEGSVTNMFTSIVGNVFGFKALRALRLEDLRIPPAYVKTFVGPPHGIQVERDKLNKYGRGLLGCTIKPKLGLSAKNYGRAVYECLRGGLDFTKDDENVNSQPFMRWRDRFLFVAEAIYKAQAETGEVKGHYLNATAGTCEEMMKRAVCAKELGVPIIMHDYLTGGFTANTSLAIYCRDNGLLLHIHRAMHAVIDRQRNHGIHFRVLAKALRMSGGDHLHSGTVVGKLEGEREVTLGFVDLMRDDYVEKDRSRGIYFTQDWCSMPGVMPVASGGIHVWHMPALVEIFGDDACLQFGGGTLGHPWGNAPGAAANRVALEACTQARNEGRDLAREGGDVIRSACKWSPELAAACEVWKEIKFEFDTIDKL

Columns and labels:
[1] = target: Rubisco holoenzyme (native Rubisco purified from Chlamydomonas cells) (Chlamydomonas reinhardtii (endogenous in strain cMJ030)) (UniProt P00877); assay: SPR
[2] = target: Rubisco holoenzyme (native Rubisco purified from Chlamydomonas cells) (Chlamydomonas reinhardtii (endogenous in strain cMJ030)) (UniProt P00877); assay: cryo-EM structure
cryo-EM structure = target: the molecule itself; assay: cryo-EM structure

Molecule | Kd [1] | stoichiometry N [2] | stoichiometry N (cryo-EM structure)
EPYC1_(49-72) peptide | 3 mM | < 8 | –
EPYC1_(106-135) peptide | – | < 8 | –
B1 | – | – | 8

From article PMC7736253 (Nature plants, 2020)
